Measured values: US20260209387A1, “SINGLE-DOMAIN ANTIBODY FOR INHIBITION OF NEUTROPHIL ELASTASE ACTIVITY” (UNIVERSITE DE LIEGE, priority 2023, published 2026)

T1: human cathepsin G (hCG) (Homo sapiens, UniProt P08311)
T1 construct: purchased Calbiochem
T1 sequence (P08311 21-244): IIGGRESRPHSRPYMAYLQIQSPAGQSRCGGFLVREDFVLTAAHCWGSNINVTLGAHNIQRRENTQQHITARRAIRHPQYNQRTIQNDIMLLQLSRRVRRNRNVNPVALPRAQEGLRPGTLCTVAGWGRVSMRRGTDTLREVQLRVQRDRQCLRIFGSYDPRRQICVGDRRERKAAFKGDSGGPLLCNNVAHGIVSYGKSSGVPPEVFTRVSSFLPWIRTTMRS

T2: hNE (Homo sapiens, UniProt P08246)
T2 construct: purchased Elastin Products Company (EPC)
T2 sequence (P08246 30-247): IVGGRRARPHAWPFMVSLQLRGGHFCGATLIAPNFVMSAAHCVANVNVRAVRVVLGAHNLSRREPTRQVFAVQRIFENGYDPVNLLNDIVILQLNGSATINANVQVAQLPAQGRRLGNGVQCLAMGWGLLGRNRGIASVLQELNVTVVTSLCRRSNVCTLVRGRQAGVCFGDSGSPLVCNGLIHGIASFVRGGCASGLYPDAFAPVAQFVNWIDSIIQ

B1: NbE201: anti-hNE ISVD (VHH/nanobody) from immunized lama, amino acid sequence SEQ ID NO: 4 (protein)
VHH: QVQLQESGGGLVQAGGSLRLSCVVPGRTISLYRMGWFRQAPGKEREFVAGINWSGDMTDYVDSVKGRFTISRDNAKNTVYLEMNSLKPEDTAIYYCTADPKLLPLADSSYGYWGQGTQVTVSS
B2: NbE201-PEG40: NbE201-Cter conjugated via C-terminal cysteine to branched 40 kDa PEG-maleimide (conjugate)
VHH: QVQLQESGGGLVQAGGSLRLSCVVPGRTISLYRMGWFRQAPGKEREFVAGINWSGDMTDYVDSVKGRFTISRDNAKNTVYLEMNSLKPEDTAIYYCTADPKLLPLADSSYGYWGQGTQVTVSSSPSTPPTPSPSTPPC

How the values were obtained:
human cathepsin G (hCG) = biological target: T1, human cathepsin G (hCG); assay: hCG inhibition, substrate N-Succinyl-Ala-Ala-Pro-Phe p-nitroanilide; format: biochemical; conditions: chromogenic substrate
Excerpt: To determine whether NbE201 was specific for hNE, we first investigated its ability to inhibit several serine proteases: pancreatic elastase from pork (pPE, 39.2% sequence identity, from Sigma), mice neutrophil elastase (mNE, 74.9% sequence identity, from EPC) and with two other human serine proteases present in the lung: proteinase 3 (hPR3 from EPC, 54.7% sequence identity) and cathepsin G (hCG from Calbiochem, 36.7% sequence identity). The substrate used were Succinyl-Ala-Ala-Ala-paraNitroAnilide (1 mM in 0.1 M Tris pH 7.5 with NaCl 0.5 M and NaN3 0.01%, % w/v from Sigma-Aldrich) for pPE, MeOSuc-Ala-Ala-Pro-Val-AMC (100 μM in Tris 50 mM, NaCl 1 M, 0.05% (% w/v) Brij-35, pH 7.5) for mNE, N-Succinyl-Ala-Ala-Pro-Phe p-nitroanilide (0.45 mM in 100 mM HEPES pH 7.5, from Sigma Aldrich) for hCG and Boc-Ala-Ala-Nva-SBzl (0.22 mM in 100 mM MOPS pH 5.0 0.5 M NaCl, 100 μM DTNB, DMSO 10%, from EPC) for PR3. mNE (rmELA2 from R&D systems, United Kingdom) was first activated according to the supplier information. In brief, mNE was incubated with recombinant mouse active cathepsin C/DPPIy (rmCathepsin C from R&D systems) in MES 50 mM, NaCl 50 mM, pH 5.5 for 2 h at 37° C. The enzyme concentration in the assay was 6 nM, 14.7 nM, 25 nM, 5 nM for PPE, mNE, hCG and hPR3, respectively. Different molar ratios of NbE201: Enzyme were tested. […]

[1] = Pharmacokinetic study, intratracheal instillation, BAL content by ELISA; format: in vivo, mice
Experimental: 2.5.1. Instillation of mice and collection of BAL. […] Broncho-alveolar lavages (BAL), nasal lavages (NAL), blood samples, and lungs were collected 0, 4 or 24 h after instillation. BAL and NAL were collected with 2 ml and 1 ml of Hanks' Balanced Salt Solution (HBSS) buffer respectively. Cells were discarded from BAL and NAL samples via a 5 min centrifugation at 300 g and supernatants were stored at −20° C. Lungs were collected in 0.5 ml of HBSS buffer, ground (Precellys evolution, Bertin Technologies, Montigny-le-bretonneux, France) and centrifuged at 300 g for 15 min. Supernatants were stored at −20° C. Blood was collected by intra-cardiac puncture and stored in anti-coagulant tubes (Microvette®) 500, K3 EDTA, VWR) at −20° C. All samples were treated with an anti-protease cocktail (Roche).
2.5.2. ELISA analysis. ISVD and AAT content in the BALs collected in vivo were measured by a sandwich ELISA method. An ELISA conversion pack from Meso scale Discovery (Rockville, USA) was used for ISVD analysis, according to the manufacturer instructions. Uncoated Mesoscale compatible plates were coated with an anti-histag antibody (BioLegend, San Diego, USA). ISVDs were then detected with an anti-VHH antibody (Jackson ImmunoResearch, Ely, UK) mixed with an anti-goat Sulfo-TAG labelled antibody (Meso scale Discovery) and the signal was read with an MESO QuickPlex SQ 120 MM (Meso scale Discovery). AAT content in the samples was measured by a commercial ELISA kit (Human Serpin Al DuoSet ELISA, R&D system, Mineapolis, USA) according to manufacturer instructions.

hNE = biological target: T2, hNE; assay: hNE inhibitory capacity after physical stress; format: biochemical; conditions: hNE: Nb molar ratio 1:1, compared to unexposed ISVD
Experimental: 2.2.1 Evaluation of the proteolytic activity inhibition on purified hNE. hNE activity was assessed by following the degradation of a chromogenic hNE substrate, N-succinyl-alanine-alanine-proline-valine-p-nitroanilide (suc-Ala-Ala-Pro-Val-pNA, Elastin products, Owensville, Missouri, USA), measuring the absorbance at 410 nm with a spectrophotometer (Spectramax ID5, Molecular Devices, San Jose, USA). The substrate was diluted to a concentration of 1.5 mM in a tris buffer (0.1M tris, 0.5M NaCl, 0.01% NaN3, pH 7.5) and 200 μl of this solution were added to the wells of a 96-well plate and heated at 37° C. Purified hNE (Elastin products) was reconstituted on ice in a 0.05M Sodium acetate (NaOAc), 0.1M NaCl buffer at pH5 to a concentration of 0.1 mg/ml. 10 μl of this hNE solution were added per well and the substrate degradation was followed during 20 min to verify the hNE activity in the wells. ISVDswere then added to the wells at the desired hNE: ISVD ratio, and the substrate degradation was then followed during 50 min. Slopes were calculated from the regression line drawn from the absorbance measurements and were expressed as a percentage of the hNE activity without ISVDs. […]

Row | Molecule | inhibition of human cathepsin G (human cathepsin G (hCG)) | percentage of the dose collected at time 0 quantified in BAL after 24 h ([1]; Swiss mice) | percentage of the dose collected at time 0 quantified in BAL after 24 h ([1]; β-ENaC mice) | loss of hNE inhibitory capacity after nebulization, agitation or F/T cycles (hNE)
1 | B1 | does not inhibit | 4.4% | 3.3% | the greatest losses were observed with nebulization and 4 h of agitation
2 | B2 | – | 65% | 56% | did not display any significant loss of inhibitory activity
